Target: T1, Recombinant human Dicer (FLAG-Dicer) (human, UniProt Q9UPY3 1-1922)
T1 construct: Dicer, human RNase III enzyme; source: Expi293 cells expressing FLAG-Dicer (University of Michigan Protein core), purified (M2 anti-FLAG resin)
Assay: SEC; purified Dicer and TRBP mixed at a 1:3 molar ratio, concentrated, loaded on HiLoad 16/600 Superdex 200 in buffer D (20 mM Tris-HCl pH 8.0, 150 mM NaCl, 2 mM DTT)
Settings: both partners purified

T1 sequence (Q9UPY3 whole entry): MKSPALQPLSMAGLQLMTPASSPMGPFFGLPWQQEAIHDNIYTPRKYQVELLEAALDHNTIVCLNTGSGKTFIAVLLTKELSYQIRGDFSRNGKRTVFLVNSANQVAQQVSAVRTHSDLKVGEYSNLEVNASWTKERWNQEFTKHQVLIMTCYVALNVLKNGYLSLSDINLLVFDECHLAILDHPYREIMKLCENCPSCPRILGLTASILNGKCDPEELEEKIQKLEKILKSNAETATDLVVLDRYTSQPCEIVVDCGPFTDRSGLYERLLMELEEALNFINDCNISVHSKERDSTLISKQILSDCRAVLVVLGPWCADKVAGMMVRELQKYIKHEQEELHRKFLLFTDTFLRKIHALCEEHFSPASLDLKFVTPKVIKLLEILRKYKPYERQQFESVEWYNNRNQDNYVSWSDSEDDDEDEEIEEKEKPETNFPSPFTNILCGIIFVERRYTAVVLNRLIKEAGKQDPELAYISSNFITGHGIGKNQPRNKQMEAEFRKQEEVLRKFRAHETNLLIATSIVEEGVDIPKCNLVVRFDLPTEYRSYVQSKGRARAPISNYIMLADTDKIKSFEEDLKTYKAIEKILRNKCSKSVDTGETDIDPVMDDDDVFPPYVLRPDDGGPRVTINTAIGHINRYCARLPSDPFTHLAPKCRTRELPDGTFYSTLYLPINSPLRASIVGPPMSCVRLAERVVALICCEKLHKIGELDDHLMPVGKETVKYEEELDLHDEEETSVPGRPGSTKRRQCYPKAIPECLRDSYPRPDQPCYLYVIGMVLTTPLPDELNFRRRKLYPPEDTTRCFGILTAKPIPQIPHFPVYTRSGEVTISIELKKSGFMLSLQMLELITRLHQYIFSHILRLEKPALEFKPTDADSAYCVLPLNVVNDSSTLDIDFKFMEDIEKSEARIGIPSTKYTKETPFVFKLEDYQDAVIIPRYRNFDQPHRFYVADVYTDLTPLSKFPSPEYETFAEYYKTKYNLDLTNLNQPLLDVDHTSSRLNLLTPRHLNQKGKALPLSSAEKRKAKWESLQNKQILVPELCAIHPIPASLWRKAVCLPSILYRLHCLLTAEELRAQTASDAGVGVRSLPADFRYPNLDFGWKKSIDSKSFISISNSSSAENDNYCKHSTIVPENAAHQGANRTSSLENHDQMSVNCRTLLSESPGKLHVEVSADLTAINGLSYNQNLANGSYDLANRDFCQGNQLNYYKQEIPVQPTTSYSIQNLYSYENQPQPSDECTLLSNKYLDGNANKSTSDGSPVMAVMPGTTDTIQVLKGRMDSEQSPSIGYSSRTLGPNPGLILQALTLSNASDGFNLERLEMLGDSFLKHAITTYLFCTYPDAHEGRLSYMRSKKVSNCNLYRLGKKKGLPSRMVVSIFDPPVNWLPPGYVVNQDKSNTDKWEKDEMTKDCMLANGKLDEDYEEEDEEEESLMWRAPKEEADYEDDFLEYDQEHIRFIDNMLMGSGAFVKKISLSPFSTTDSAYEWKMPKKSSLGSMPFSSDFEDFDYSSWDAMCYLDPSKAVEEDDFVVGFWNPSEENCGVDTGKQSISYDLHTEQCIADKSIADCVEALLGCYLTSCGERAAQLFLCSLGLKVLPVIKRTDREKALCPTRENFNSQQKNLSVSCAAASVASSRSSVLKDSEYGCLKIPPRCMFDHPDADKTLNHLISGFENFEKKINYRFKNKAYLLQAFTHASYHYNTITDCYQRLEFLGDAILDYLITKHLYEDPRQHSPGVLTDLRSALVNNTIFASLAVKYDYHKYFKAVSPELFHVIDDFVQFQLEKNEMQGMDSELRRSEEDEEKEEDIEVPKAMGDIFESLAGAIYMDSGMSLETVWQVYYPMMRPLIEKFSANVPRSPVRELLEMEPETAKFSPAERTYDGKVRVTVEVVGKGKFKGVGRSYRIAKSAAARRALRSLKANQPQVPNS

B1: human transactivation response element RNA-binding protein (TRBP) (natural protein, UniProt Q15633 1-366, looked up)
chain: MSEEEQGSGTTTGCGLPSIEQMLAANPGKTPISLLQEYGTRIGKTPVYDLLKAEGQAHQPNFTFRVTVGDTSCTGQGPSKKAAKHKAAEVALKHLKGGSMLEPALEDSSSFSPLDSSLPEDIPVFTAAAAATPVPSVVLTRSPPMELQPPVSPQQSECNPVGALQELVVQKGWRLPEYTVTQESGPAHRKEFTMTCRVERFIEIGSGTSKKLAKRNAAAKMLLRVHTVPLDARDGNEVEPDDDHFSIGVGSRLDGLRNRGPGCTWDSLRNSVGEKILSLRSCSLGSLGALGPACCRVLSELSEEQAFHVSYLDIEELSLSGLCQCLVELSTQPATVCHGSATTREAARGEAARRALQYLKIMAGSK
notes: TRBP, human, from plasmid pET28a-TRBP; The construct is that of Addgene plasmid #50351
B1: binds.
